Reference: the supplement of paper PMC10567573

B1: SPSB1 (parent)
chain: DMRDPTYRPLKQELQGLDYCKPTR
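Note: lentivirally expressed fusions sorted by FACS into six bins by GFP to DsRed ratio, PSI derived from sequencing read proportions per bin multiplied by bin number.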

Variants of: B1
Assay: protein stability index of a GFP-peptide fusion (GPS, HEK-293T) (PSI 1-6); higher = more stable
Conditions: c terminus: a fixed tail appended
With DMRDPTYRPLKQELQGLDYKKPTR [C20K] the protein stability index was 4.6.
In the case of DMRDPTYRPLKQELQGLDYPKPTR [C20P], the protein stability index is reported as 3.94.
Variant DMRDPTYRPLKQELQGLDYSKPTR [C20S] has a protein stability index of 4.11.
Variant DMRDPTYRPLKQELQGLDYTKPTR [C20T] has a protein stability index of 3.71.
Variant DMRDPTYRPLKQELQGLDYYKPTR [C20Y] has a protein stability index of 3.58.
Work on DMRDPTYRPLKQELQGLDYCKPTQ [R24Q] yielded a protein stability index of 3.18.
In the case of DMRDPTYRPLKQELQGLDYCKPTL [R24L], the protein stability index is reported as 1.6.
For DMRDPTYRPLKQELQGLDYCKPTV [R24V], the protein stability index was 1.92.
Work on DMRDPTYRPLKQELQGLDYCKPTY [R24Y] yielded a protein stability index of 2.21.
DMRDPTYRPLKQELQGLDYCKPTP [R24P] showed a protein stability index of 4.29.
DMRDPTYRPLKQELQGLDYCKPTW [R24W] gave a protein stability index of 1.93.
In the case of DMRDPTYRPLKQELQGLDYCKPTF [R24F], the protein stability index is reported as 2.41.
Work on DMRDPTYRPLKQELQGLDYCKPTM [R24M] yielded a protein stability index of 1.64.
DMRDPTYRPLKQELQGLDYCKPTN [R24N] showed a protein stability index of 4.03.
With DMRDPTYRPLKQELQGLDYCKPTE [R24E] the protein stability index was 4.56.
In the case of DMRDPTYRPLKQELQGLDYCKPTC [R24C], the protein stability index is reported as 1.93.
In the case of DMRDPTYRPLKQELQGLDYCKPTS [R24S], the protein stability index is reported as 3.68.
Variant DMRDPTYRPLKQELQGLDYCKPTK [R24K] has a protein stability index of 3.09.
DMRDPTYRPLKQELQGLDYCKPTD [R24D] gave a protein stability index of 4.59.
DMRDPTYRPLKQELQGLDYCKPTT [R24T] showed a protein stability index of 3.27.
Variant DMRDPTYRPLKQELQGLDYCKPTA [R24A] has a protein stability index of 2.32.
With DMRDPTYRPLKQELQGLDYCKPTH [R24H] the protein stability index was 2.98.
In the case of DMRDPTYRPLKQELQGLDYCKPTG [R24G], the protein stability index is reported as 3.85.
In the case of DMRDPTYRPLKQELQGLDYCKPFR [T23F], the protein stability index is reported as 2.09.
Work on DMRDPTYRPLKQELQGLDYCKPGR [T23G] yielded a protein stability index of 4.26.
DMRDPTYRPLKQELQGLDYCKPLR [T23L] gave a protein stability index of 2.99.
In the case of DMRDPTYRPLKQELQGLDYCKPPR [T23P], the protein stability index is reported as 4.33.
For DMRDPTYRPLKQELQGLDYCKPKR [T23K], the protein stability index was 3.9.
Work on DMRDPTYRPLKQELQGLDYCKPRR [T23R] yielded a protein stability index of 4.3.
For DMRDPTYRPLKQELQGLDYCKPYR [T23Y], the protein stability index was 2.5.
DMRDPTYRPLKQELQGLDYCKPDR [T23D] showed a protein stability index of 2.87.
Variant DMRDPTYRPLKQELQGLDYCKPVR [T23V] has a protein stability index of 3.29.
Work on DMRDPTYRPLKQELQGLDYCKPSR [T23S] yielded a protein stability index of 2.92.
With DMRDPTYRPLKQELQGLDYCKPWR [T23W] the protein stability index was 1.76.
Work on DMRDPTYRPLKQELQGLDYCKPHR [T23H] yielded a protein stability index of 3.19.
Work on DMRDPTYRPLKQELQGLDYCKPAR [T23A] yielded a protein stability index of 3.18.
Variant DMRDPTYRPLKQELQGLDYCKPIR [T23I] has a protein stability index of 2.52.
Work on DMRDPTYRPLKQELQGLDYCKPER [T23E] yielded a protein stability index of 3.92.
Variant DMRDPTYRPLKQELQGLDYCKPCR [T23C] has a protein stability index of 3.3.
DMRDPTYRPLKQELQGLDYCKPQR [T23Q] gave a protein stability index of 3.47.
With DMRDPTYRPLKQELQGLDYCKPMR [T23M] the protein stability index was 2.87.
Variant DMRDPTYRPLKQELQGLDYCCPTR [K21C] has a protein stability index of 2.44.
For DMRDPTYRPLKQELQGLDYCSPTR [K21S], the protein stability index was 2.92.
With DMRDPTYRPLKQELQGLDYCQPTR [K21Q] the protein stability index was 2.64.
Work on DMRDPTYRPLKQELQGLDYCYPTR [K21Y] yielded a protein stability index of 2.18.
With DMRDPTYRPLKQELQGLDYCAPTR [K21A] the protein stability index was 2.9.
In the case of DMRDPTYRPLKQELQGLDYCVPTR [K21V], the protein stability index is reported as 3.65.
In the case of DMRDPTYRPLKQELQGLDYCLPTR [K21L], the protein stability index is reported as 3.38.
Work on DMRDPTYRPLKQELQGLDYCMPTR [K21M] yielded a protein stability index of 2.39.
Variant DMRDPTYRPLKQELQGLDYCFPTR [K21F] has a protein stability index of 1.6.
DMRDPTYRPLKQELQGLDYCPPTR [K21P] showed a protein stability index of 3.95.
For DMRDPTYRPLKQELQGLDYCHPTR [K21H], the protein stability index was 2.46.
For DMRDPTYRPLKQELQGLDYCTPTR [K21T], the protein stability index was 2.63.
With DMRDPTYRPLKQELQGLDYCDPTR [K21D] the protein stability index was 1.74.
In the case of DMRDPTYRPLKQELQGLDYCNPTR [K21N], the protein stability index is reported as 1.78.
In the case of DMRDPTYRPLKQELQGLDYCIPTR [K21I], the protein stability index is reported as 1.87.
Work on DMRDPTYRPLKQELQGLDYCWPTR [K21W] yielded a protein stability index of 1.98.
Work on DMRDPTYRPLKQELQGLDYCEPTR [K21E] yielded a protein stability index of 2.76.
For DMRDPTYRPLKQELQGLDYCGPTR [K21G], the protein stability index was 3.66.
For DMRDPTYRPLKQELQGLDYCRPTR [K21R], the protein stability index was 3.5.
Work on DMRDPTYRPLKQELQGLDDCKPTR [Y19D] yielded a protein stability index of 4.37.
For DMRDPTYRPLKQELQGLDICKPTR [Y19I], the protein stability index was 3.78.
Work on DMRDPTYRPLKQELQGLDPCKPTR [Y19P] yielded a protein stability index of 4.56.
Work on DMRDPTYRPLKQELQGLDCCKPTR [Y19C] yielded a protein stability index of 3.91.
With DMRDPTYRPLKQELQGLDKCKPTR [Y19K] the protein stability index was 3.99.
Work on DMRDPTYRPLKQELQGLDQCKPTR [Y19Q] yielded a protein stability index of 4.48.
For DMRDPTYRPLKQELQGLDMCKPTR [Y19M], the protein stability index was 4.
DMRDPTYRPLKQELQGLDFCKPTR [Y19F] showed a protein stability index of 3.18.
In the case of DMRDPTYRPLKQELQGLDGCKPTR [Y19G], the protein stability index is reported as 4.73.
Variant DMRDPTYRPLKQELQGLDWCKPTR [Y19W] has a protein stability index of 3.04.
Variant DMRDPTYRPLKQELQGLDHCKPTR [Y19H] has a protein stability index of 4.18.
DMRDPTYRPLKQELQGLDLCKPTR [Y19L] gave a protein stability index of 4.37.
Variant DMRDPTYRPLKQELQGLDECKPTR [Y19E] has a protein stability index of 5.15.
With DMRDPTYRPLKQELQGLDTCKPTR [Y19T] the protein stability index was 4.32.
DMRDPTYRPLKQELQGLDACKPTR [Y19A] showed a protein stability index of 4.53.
In the case of DMRDPTYRPLKQELQGLDVCKPTR [Y19V], the protein stability index is reported as 4.5.
DMRDPTYRPLKQELQGLDRCKPTR [Y19R] showed a protein stability index of 4.4.
For DMRDPTYRPLKQELQGLDNCKPTR [Y19N], the protein stability index was 4.92.
For DMRDPTYRPLKQELQGLDSCKPTR [Y19S], the protein stability index was 4.35.
